± gives the standard deviation.
Experiment: protein stability index of a GFP-peptide fusion (GPS, HEK-293T) (PSI 1-6); higher = more stable
[1] = treatment: DMSO, c terminus: a fixed tail appended
[2] = treatment: MLN4924 1 uM, 8 h, c terminus: a fixed tail appended
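Further: 24-mer peptide tiles fused after GFP, lentivirally expressed, FACS-sorted into six equal bins by GFP/DsRed ratio, decoded by Illumina sequencing, PSI is the read-weighted mean bin number.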

VNEFSLKGVDFQKFCMNGAALCAL [ETS1]
protein stability index [1]: 2.32 ± 0.76 | protein stability index [2]: 2.3 ± 0.033

SSATTYFWYREALDISDSISESGG [SLC6A17]
protein stability index [1]: 2.62 ± 0.46 | protein stability index [2]: 2.73 ± 0.34

VLLTQIESKKHQVETAFERLQQEL [TRIM15]
protein stability index [1]: 2.73 ± 0.27 | protein stability index [2]: 2.77 ± 0.38

QKNKKILKSAKDLPPDALIIEYRG [KMT2E]
protein stability index [1]: 2.82 ± 0.43 | protein stability index [2]: 3.07 ± 0.37

LCPLCGKNFSNNSNLIRHQRIHAA [ZNF263]
protein stability index [1]: 3.97 ± 0.5 | protein stability index [2]: 4.12 ± 0.47

FLIEGPLINTIRVVCASYEDYGHW [PLEKHN1]
protein stability index [1]: 3.56 ± 0.49 | protein stability index [2]: 2.58 ± 0.94

SPGHSSAGQEGEDTLRRRLLAPEA [TOR1AIP2]
protein stability index [1]: 4.29 ± 0.052 | protein stability index [2]: 4.51 ± 0.27

CEENEQSLPPPAGLNSSWVELPMN [BNIP3L]
protein stability index [1]: 4.65 ± 0.34 | protein stability index [2]: 4.41 ± 0.25

FEVPYYNRGLILYRLGYFDDALED [TTC32]
protein stability index [1]: 2.5 ± 0.44 | protein stability index [2]: 2.23 ± 0.36

AMKSVHENMDLNKIDDLMQEITEQ [CHMP4C]
protein stability index [1]: 4.7 ± 0.16 | protein stability index [2]: 4.85 ± 0.52

NYQAHQSRVTMILFVLELEWVLST [WDFY2]
protein stability index [1]: 3.1 ± 0.08 | protein stability index [2]: 2.89 ± 0.67

SAMALVKHSVLLSASRKSAEQLRI [WEE1]
protein stability index [1]: 2.06 ± 0.093 | protein stability index [2]: 2.16 ± 0.13

ASMSKRRCGVGVSVLDDLLYAVGG [KLHL20]
protein stability index [1]: 2.62 ± 0.14 | protein stability index [2]: 2.13 ± 0.44

ENRGIVVLGINRAYGKNSLSKNLI [AUH]
protein stability index [1]: 2.84 ± 1.2 | protein stability index [2]: 2.44 ± 1.2

SEPFLTPYLLGPDKNLTEREVFNE [SLC19A2]
protein stability index [1]: 4.8 ± 0.053 | protein stability index [2]: 4.83 ± 0.062

MGMNMNIGMSAAGMGLTGTMGMGM [CLINT1]
protein stability index [1]: 2.48 ± 0.18 | protein stability index [2]: 2.2 ± 0.28

GPFDQGSPFAQELLDDGQQASPYH [ELF3]
protein stability index [1]: 5.16 ± 0.18 | protein stability index [2]: 4.96 ± 0.13

SARDCKFTGNFFYNYMMGIEFNPR [DHCR7]
protein stability index [1]: 2.24 ± 0.44 | protein stability index [2]: 2.07 ± 0.59

TEGVTQLKLTVVEDVTVGRRQAVA [ZFYVE21]
protein stability index [1]: 4.07 ± 0.18 | protein stability index [2]: 4.12 ± 0.19

PPHKHVARPTEVLAGTQLLYAFFT [TRIB3]
protein stability index [1]: 2.46 ± 0.21 | protein stability index [2]: 2.43 ± 0.15

TIVEEVQDGKVISSREQVHQTTR [KRT17]
protein stability index (treatment: DMSO, c terminus: native): 5.03 ± 0.23 | protein stability index (treatment: MLN4924 1 uM, 8 h, c terminus: native): 5.08 ± 0.25

IQFIKLFGMAKIDNLLQEMLLGGS [HNF4A]
protein stability index [1]: 2.84 ± 0.72 | protein stability index [2]: 3.11 ± 0.61

NKRVGMYLEGFDPFNQSTFNNVVE [DLC1]
protein stability index [1]: 3.09 ± 0.24 | protein stability index [2]: 3.23 ± 0.2

VPPGVVNIVFGTGPRVGEALVSHP [ALDH8A1]
protein stability index [1]: 2.21 ± 0.36 | protein stability index [2]: 2.27 ± 0.35

DTAHDFRAKCRNMEHALREKAKAF [TRIM35]
protein stability index [1]: 3.18 ± 0.25 | protein stability index [2]: 3.43 ± 0.23

YKSWLKNLAKEQLSRENIQSSLLE [PPEF2]
protein stability index [1]: 2.72 ± 0.24 | protein stability index [2]: 2.86 ± 0.13

PQGAVLVQREKDLPNYNWNSFGLR [KISS1]
protein stability index [1]: 3.04 ± 0.17 | protein stability index [2]: 3.13 ± 0.32

VLSSWSRAFVSIQEEMAEDPLTYK [RHOBTB2]
protein stability index [1]: 2.89 ± 0.14 | protein stability index [2]: 3.17 ± 0.6

SRSNNMGIVGGFTQMIREGGARSL [SLC25A25]
protein stability index [1]: 3.17 ± 0.27 | protein stability index [2]: 3.47 ± 0.18

SADVNARDKNWQTPLHVAAANKAV [ANKRD44]
protein stability index [1]: 4.18 ± 0.31 | protein stability index [2]: 4.07 ± 0.18

VIEPVVENSGILQGKLIKRQRLAK [EFHC1]
protein stability index [2]: 3.68 ± 0.65

LIKLGLERFHGVGILGFNSAEWFI [ACSBG2]
protein stability index [1]: 1.91 ± 0.25 | protein stability index [2]: 2.13 ± 0.65

TGGADAYYEMGIHCWDVAGAGIIV [IMPA1]
protein stability index [1]: 2.83 ± 0.79 | protein stability index [2]: 2.97 ± 0.85

INSGYETRRKKGKKDKDISKEKDT [KMT2E]
protein stability index [1]: 4.59 ± 0.13 | protein stability index [2]: 4.78 ± 0.16

APKPDAAPSIDLFSTDAFSSPPQG [SNAP91]
protein stability index [1]: 4.73 ± 0.14 | protein stability index [2]: 4.84 ± 0.14

DILMEFGHLFPPPTPIFAGGANDR [WSB1]
protein stability index [1]: 2.41 ± 0.46 | protein stability index [2]: 2.51 ± 0.45

LLSIGPELPKPEVISQLEQGTELW [ZNF8]
protein stability index [1]: 4.19 ± 0.28 | protein stability index [2]: 3.54 ± 0.099

FSGTDWMLEKMDLKEFDLDALLGI [ATF4]
protein stability index [1]: 2.33 ± 0.11 | protein stability index [2]: 2.5 ± 0.49

FQNFSLHDPLYGKLFSTYLRPPHT [LPCAT4]
protein stability index [1]: 2.27 ± 0.36 | protein stability index [2]: 2.12 ± 0.19

LMRHGMEKIWRPNRVFSLQDLCCR [RAB40C]
protein stability index [1]: 2.74 ± 0.14 | protein stability index [2]: 2.71 ± 0.27

ARRYAGPLHHQTQRFRLDNLLNMA [ELAVL3]
protein stability index [1]: 2.78 ± 0.35 | protein stability index [2]: 2.75 ± 0.31

AFLGDAEIIELLILSGARVNAKDN [ANKRD44]
protein stability index [1]: 2.45 ± 0.73 | protein stability index [2]: 2.32 ± 0.23

FTSGFNAAALDYEADGSTNNGIFQ [SPACA3]
protein stability index [1]: 2.67 ± 0.53 | protein stability index [2]: 3.48 ± 0.74

LLQADREHLPVKPDTMEKLRTHID [DENND6A]
protein stability index [1]: 3.86 ± 0.36 | protein stability index [2]: 3.92 ± 0.12

DRFLAGVPTPKSHLQLLGAVCMFL [CCND2]
protein stability index [1]: 2.63 ± 0.2 | protein stability index [2]: 2.27 ± 0.21

LQQLLVLQPEQQLNIYKTLKTHLI [CDS1]
protein stability index [1]: 2.4 ± 0.55 | protein stability index [2]: 2.17 ± 0.36

QMLRKTVKDEAHQAQKDPKKDRPL [PPP2R5C]
protein stability index [1]: 4.89 ± 0.1 | protein stability index [2]: 4.97 ± 0.24

GRGPPSEPVLTQTSEQAPSSAPRD [PTPRD]
protein stability index [1]: 5.74 ± 0.22 | protein stability index [2]: 5.34 ± 0.31

SLQLVFGIELMEVDPIGHLYIFAT [MAGEA3]
protein stability index [1]: 2.91 ± 0.23 | protein stability index [2]: 2.74 ± 0.76

NPTEPATIIFTAAREGRETLKCLS [TOR1AIP2]
protein stability index [1]: 3.71 ± 0.25 | protein stability index [2]: 3.69 ± 0.12

EFFAVTRFLVGMMNGGMSLVAFVL [SLC22A15]
protein stability index [1]: 2.22 ± 0.24 | protein stability index [2]: 2.2 ± 0.38

GAYKSSTICYCPEKGTWTELEGDV [KLHL14]
protein stability index [1]: 4.22 ± 0.32 | protein stability index [2]: 4.38 ± 0.32

TRRAQADLAYQLQVAKTKQQIEEQ [FLOT1]
protein stability index [1]: 4.82 ± 0.19 | protein stability index [2]: 4.8 ± 0.2

RDSSFLISGGFDRTVAIWDVAEGY [WDR88]
protein stability index [1]: 2.71 ± 0.16 | protein stability index [2]: 2.86 ± 0.23

NEGAIDCVNYEGQSAYDVADMLKQ [DLC1]
protein stability index [1]: 4.82 ± 0.28 | protein stability index [2]: 4.82 ± 0.12

LFAIANGFSPSYEFFAVTRFLVGM [SLC22A15]
protein stability index [1]: 3.06 ± 0.34 | protein stability index [2]: 2.57 ± 1.3

CEDLDELHYQDTDSDVPEQRDSKC [MYBL2]
protein stability index [1]: 5.65 ± 0.37 | protein stability index [2]: 5.54 ± 0.24

GNGALSNISDLPFLAENSAFPKMA [LCOR]
protein stability index [1]: 3.72 ± 0.22 | protein stability index [2]: 3.49 ± 0.17

AACTRALESSEELLETANQTLQAM [FSD1]
protein stability index [1]: 5.14 ± 0.16 | protein stability index [2]: 4.84 ± 0.38

MGGPFSYVYFFCTVPEILVHNIVI [TMEM106C]
protein stability index [1]: 3.23 ± 0.51 | protein stability index [2]: 3.19 ± 0.82

LIQHQRIHKGEKPYQCSQCSKSYS [ZSCAN9]
protein stability index [1]: 2.89 ± 0.3 | protein stability index [2]: 3.26 ± 0.26

HRRRNQLIKKKKEELEAKRLQCPF [FAM107A]
protein stability index [1]: 3.95 ± 0.38 | protein stability index [2]: 4.22 ± 0.16

PESAIKFMAYEQIKRLVGSDQETL [SLC25A25]
protein stability index [1]: 3.31 ± 0.15 | protein stability index [2]: 3.4 ± 0.25

LEESDIDRDGTINLSEFQHVISRS [CIB1]
protein stability index [1]: 4.69 ± 0.24 | protein stability index [2]: 4.75 ± 0.084

NERMLESYLHAKKYLKPSGNMFPT [CARM1]
protein stability index [1]: 2.59 ± 0.26 | protein stability index [2]: 2.99 ± 0.37

Reference: the supplement of paper PMC10567573
